The results in this text go back to the supplement of paper PMC9233669.

Variants at the floor of the assay were thinned out.

One series has as its system biotinyl-Phe-oxazolone. Briefly: self-aminoacylation, catalytic enhancement (BFO) (fold over background); higher = more active; k-Seq, kA / k0A0; sequences stand for … in GGGAAUGGAUCCACAUCUACGAAUUC…UUCACUGCAGACUUGACGAAGCUG
In outline:
(§1)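 Catalytic enhancement equals the median kA over the uncatalyzed rate, the latter read from the low-activity peak of a bimodal Gaussian fit. Values of kA came from fitting each sequence's fraction reacted to a pseudo-first-order model, with 1000 bootstraps. Reacted RNA was captured with streptavidin and quantified by triplicate qPCR and Illumina sequencing after 90 minutes at room temperature with 2–1250 μM biotinyl-aminoacyl-oxazolone and 0.43 μM mutagenized RNA pools bearing a 21-nt variable region.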

The subject of another series is biotinyl-Val-oxazolone. Briefly: self-aminoacylation, catalytic enhancement (BVO) (fold over background); higher = more active; k-Seq, kA / k0A0; sequences stand for … in GGGAAUGGAUCCACAUCUACGAAUUC…UUCACUGCAGACUUGACGAAGCUG
In outline:
as §1

The next series relates to biotinyl-Met-oxazolone. The series can be described thus: self-aminoacylation, catalytic enhancement (BMO) (fold over background); higher = more active; k-Seq, kA / k0A0; sequences stand for … in GGGAAUGGAUCCACAUCUACGAAUUC…UUCACUGCAGACUUGACGAAGCUG
In short, it runs like this: as §1

The next series deals with biotinyl-Leu-oxazolone. The series can be described thus: self-aminoacylation, catalytic enhancement (BLO) (fold over background); higher = more active; k-Seq, kA / k0A0; sequences stand for … in GGGAAUGGAUCCACAUCUACGAAUUC…UUCACUGCAGACUUGACGAAGCUG
In outline:
as §1

In a further series the test system is biotinyl-Ile-oxazolone. Briefly: self-aminoacylation, catalytic enhancement (BIO) (fold over background); higher = more active; k-Seq, kA / k0A0; sequences stand for … in GGGAAUGGAUCCACAUCUACGAAUUC…UUCACUGCAGACUUGACGAAGCUG
In outline: as §1

Another series deals with biotinyl-Trp-oxazolone. The series can be described thus: self-aminoacylation, catalytic enhancement (BWO) (fold over background); higher = more active; k-Seq, kA / k0A0; sequences stand for … in GGGAAUGGAUCCACAUCUACGAAUUC…UUCACUGCAGACUUGACGAAGCUG
In short, it runs like this:
as §1

As to “AUCCACCUAGGACAUCGGGUG [Fam2.2 aminoacylation ribozyme variant]”, the self-aminoacylation in the series with biotinyl-Phe-oxazolone worked out at 39.9; in the series on biotinyl-Val-oxazolone it was 3.38; with biotinyl-Met-oxazolone, 3.23; in the series on biotinyl-Leu-oxazolone, 4.49; in the series on biotinyl-Ile-oxazolone, 3.12; in the series on biotinyl-Trp-oxazolone, 5.03.
Turning to “CUACUUCAUACAUUCGGUCUG [Fam1A.1 aminoacylation ribozyme variant]”, the self-aminoacylation in the series with biotinyl-Phe-oxazolone came to 1.05; with biotinyl-Val-oxazolone it was 0.965; with biotinyl-Met-oxazolone, 0.894; in the series on biotinyl-Leu-oxazolone, 1.04; in the series on biotinyl-Ile-oxazolone, 0.955; with biotinyl-Trp-oxazolone, 0.96.
With “ACACACUUCAAACAAUCGGUC [Fam1B.1 aminoacylation ribozyme variant]”, the self-aminoacylation was found to be 65.1 in the series with biotinyl-Phe-oxazolone; 1.79 in the series with biotinyl-Val-oxazolone; 1.38 in the series with biotinyl-Met-oxazolone; 2.39 in the series on biotinyl-Leu-oxazolone; 1.73 in the series on biotinyl-Ile-oxazolone; 40.6 in the series on biotinyl-Trp-oxazolone.
As for “AUUACCCUGGUCAUCGAGGCA [Fam2.1 aminoacylation ribozyme variant]”, the self-aminoacylation with biotinyl-Phe-oxazolone came to 1.25; in the series with biotinyl-Val-oxazolone, 1.59; in the series on biotinyl-Met-oxazolone, 1.9; in the series on biotinyl-Leu-oxazolone, 1.97; in the series on biotinyl-Ile-oxazolone it was 1.29; in the series on biotinyl-Trp-oxazolone, 0.847.
Turning to “AUUUCCCUGGUCGUCGAGUGA [Fam2.1 aminoacylation ribozyme variant]”, the self-aminoacylation in the series with biotinyl-Phe-oxazolone is 4.18; with biotinyl-Val-oxazolone, 1.08; in the series with biotinyl-Met-oxazolone it was 1.12; with biotinyl-Leu-oxazolone it was 1.21; with biotinyl-Ile-oxazolone, 1.06; with biotinyl-Trp-oxazolone, 1.55.
As for “UCACGCUUCAAGCAAUCGGUC [Fam1B.1 aminoacylation ribozyme variant]”, the self-aminoacylation with biotinyl-Phe-oxazolone stood at 84.1; in the series with biotinyl-Val-oxazolone it was 1.7; in the series on biotinyl-Met-oxazolone, 1.56; in the series on biotinyl-Leu-oxazolone, 2.46; in the series with biotinyl-Ile-oxazolone, 1.32; in the series with biotinyl-Trp-oxazolone it was 41.6.
Turning to “CCACACUUUAAGCAAUCGUUC [Fam1B.1 aminoacylation ribozyme variant]”, the self-aminoacylation amounted to 0.911 in the series with biotinyl-Phe-oxazolone; 0.849 with biotinyl-Val-oxazolone; 0.566 in the series on biotinyl-Met-oxazolone; 0.543 in the series with biotinyl-Leu-oxazolone; 0.669 with biotinyl-Ile-oxazolone; 0.575 in the series with biotinyl-Trp-oxazolone.
“CUACUUCAGACAAUCGGUGUG [Fam1A.1 aminoacylation ribozyme variant]”: the self-aminoacylation was 3.43 in the series with biotinyl-Phe-oxazolone; 1.4 in the series with biotinyl-Val-oxazolone; 1.57 with biotinyl-Met-oxazolone; 1.5 in the series with biotinyl-Leu-oxazolone; 1.23 with biotinyl-Ile-oxazolone; 1.7 in the series with biotinyl-Trp-oxazolone.
Take “CUUCACCUAGGUCUUCGGGUG [Fam2.2 aminoacylation ribozyme variant]”: the self-aminoacylation worked out at 34.1 in the series with biotinyl-Phe-oxazolone; 5.98 with biotinyl-Val-oxazolone; 6.17 with biotinyl-Met-oxazolone; 6.81 in the series with biotinyl-Leu-oxazolone; 4.13 in the series with biotinyl-Ile-oxazolone; 6.37 in the series on biotinyl-Trp-oxazolone.
In the case of “UCACACUUCAAGCAAUCGAUC [Fam1B.1 aminoacylation ribozyme variant]”, the self-aminoacylation with biotinyl-Phe-oxazolone turned out to be 1.49; in the series on biotinyl-Val-oxazolone, 0.808; with biotinyl-Met-oxazolone, 0.501; with biotinyl-Leu-oxazolone it was 0.468; with biotinyl-Ile-oxazolone, 0.589; in the series with biotinyl-Trp-oxazolone it was 0.732.
Regarding “AUUCACCUAGGUCUCCGGGUG [Fam2.2 aminoacylation ribozyme variant]”, the self-aminoacylation came to 47.5 in the series on biotinyl-Phe-oxazolone; 4.49 in the series with biotinyl-Val-oxazolone; 7.84 in the series with biotinyl-Met-oxazolone; 9.35 in the series with biotinyl-Leu-oxazolone; 4.71 in the series on biotinyl-Ile-oxazolone; 8.48 with biotinyl-Trp-oxazolone.
Take “CUACUUCAAGCAAUCGCUCUG [Fam1A.1 aminoacylation ribozyme variant]”: the self-aminoacylation with biotinyl-Phe-oxazolone was determined as 1.13; in the series on biotinyl-Val-oxazolone, 0.943; in the series on biotinyl-Met-oxazolone, 1.07; with biotinyl-Leu-oxazolone, 1.28; in the series on biotinyl-Ile-oxazolone, 0.99; in the series with biotinyl-Trp-oxazolone, 1.17.
For the sequence “CUACUUCAAACAAUCAGGCUG [Fam1A.1 aminoacylation ribozyme variant]”, the self-aminoacylation in the series with biotinyl-Phe-oxazolone came out at 2.7; in the series on biotinyl-Val-oxazolone it was 0.723; in the series with biotinyl-Met-oxazolone, 0.549; in the series on biotinyl-Leu-oxazolone it was 0.78; in the series with biotinyl-Ile-oxazolone it was 0.911; with biotinyl-Trp-oxazolone, 1.33.
With “CUAGUUCAAACAAUCGGUGUG [Fam1A.1 aminoacylation ribozyme variant]”, the self-aminoacylation in the series with biotinyl-Phe-oxazolone turned out to be 1.63; in the series on biotinyl-Val-oxazolone it was 0.947; in the series with biotinyl-Met-oxazolone it was 1.4; in the series with biotinyl-Leu-oxazolone, 1.63; in the series with biotinyl-Ile-oxazolone, 0.992; in the series on biotinyl-Trp-oxazolone, 1.79.
In the case of “AUUACCCUGAUCAUUGAGUGA [Fam2.1 aminoacylation ribozyme variant]”, the self-aminoacylation with biotinyl-Phe-oxazolone is 68.4; in the series with biotinyl-Val-oxazolone it was 5.87; with biotinyl-Met-oxazolone, 12.9; in the series on biotinyl-Leu-oxazolone it was 12.2; in the series with biotinyl-Ile-oxazolone, 5.87; in the series with biotinyl-Trp-oxazolone it was 15.6.
Regarding “AUUCACGUAGGUCAUCGGGUA [Fam2.2 aminoacylation ribozyme variant]”, the self-aminoacylation in the series with biotinyl-Phe-oxazolone was found to be 21; in the series on biotinyl-Val-oxazolone, 3.72; in the series with biotinyl-Met-oxazolone, 3.16; in the series with biotinyl-Leu-oxazolone, 2.95; in the series on biotinyl-Ile-oxazolone it was 2.9; in the series with biotinyl-Trp-oxazolone it was 3.66.
Consider “CAACUUCAAAUAAUCGGUCUG [Fam1A.1 aminoacylation ribozyme variant]”, for which the self-aminoacylation in the series with biotinyl-Phe-oxazolone is 15.6; in the series with biotinyl-Val-oxazolone it was 1.11; in the series on biotinyl-Met-oxazolone, 1.05; with biotinyl-Leu-oxazolone, 1.39; in the series with biotinyl-Ile-oxazolone it was 1.27; in the series on biotinyl-Trp-oxazolone, 12.2.
Regarding “CAACACUUUAAGCAAUCGGUC [Fam1B.1 aminoacylation ribozyme variant]”, the self-aminoacylation came to 1.03 in the series on biotinyl-Phe-oxazolone; 0.846 with biotinyl-Val-oxazolone; 0.762 in the series with biotinyl-Met-oxazolone; 0.854 in the series with biotinyl-Leu-oxazolone; 0.96 in the series with biotinyl-Ile-oxazolone; 0.886 in the series with biotinyl-Trp-oxazolone.
As for “UUUCACCUAGGUCAUCGGAUG [Fam2.2 aminoacylation ribozyme variant]”, the self-aminoacylation with biotinyl-Phe-oxazolone was determined as 0.842; with biotinyl-Val-oxazolone, 1.36; in the series on biotinyl-Met-oxazolone it was 0.898; in the series with biotinyl-Leu-oxazolone, 0.998; in the series on biotinyl-Ile-oxazolone, 1.1; in the series with biotinyl-Trp-oxazolone it was 1.12.
With “AUUACGCUGGUCAGCGAGUGA [Fam2.1 aminoacylation ribozyme variant]”, the self-aminoacylation stood at 21.2 with biotinyl-Phe-oxazolone; 2.4 with biotinyl-Val-oxazolone; 4.57 in the series on biotinyl-Met-oxazolone; 4.3 in the series with biotinyl-Leu-oxazolone; 3.34 in the series on biotinyl-Ile-oxazolone; 4.4 in the series on biotinyl-Trp-oxazolone.
Consider “AUUCACCUAAGUCAUCGGGUG [Fam2.2 aminoacylation ribozyme variant]”, for which the self-aminoacylation in the series on biotinyl-Phe-oxazolone came out at 74.2; in the series with biotinyl-Val-oxazolone it was 5.58; in the series with biotinyl-Met-oxazolone it was 9.66; with biotinyl-Leu-oxazolone, 12.8; in the series on biotinyl-Ile-oxazolone, 5.75; in the series on biotinyl-Trp-oxazolone it was 8.93.
